Measurements taken from US20240197906A1, “ANTI-cMET ANTIBODY DRUG CONJUGATES AND [sequence] USES THEREOF” (Mythic Therapeutics, Inc., priority 2022, published 2024).
“Also recorded” adds a separate entry of the source. One block for each molecule: values may come before it. Non-standard residues stand in square brackets, D forms with d. Residues, ends and D or L forms follow the SMILES beside them. *: point of attachment. Dolaproine = CO[C@@H]([C@@H]1CCCN1)[C@@H](C)C(=O)O; Dil = CC[C@H](C)[C@H](NC)[C@@H](CC(=O)O)OC; X1 = C[C@@H](N*)[C@@H](O)c1ccccc1; NMeV = CN[C@H](C(=O)O)C(C)C

What was measured:
EBC-1 cells [1] = test: Cell cycle arrest assay; assay type: cell-based, human; details: 10 nM, 24 hours
Procedure: Cell Cycle Arrest Assay. Briefly, EBC-1 cells were cultured in standard culture media (Eagle's minimum essential medium+10% fetal bovine serum) and conditions recommended by the vendor. Cells were plated at a density of 2×10^4 cells per well and incubated at 37° C. for 24 hours. […] Plates were incubated for 24 hours at 37° C. At the end of the culture period, test articles were removed from the plate. Cells were trypsinized, washed, and fixed in 70% ethanol for 30 minutes. Cells were washed, stained with propidium iodide staining using a cell cycle analysis kit (Abcam), and assessed by flow cytometry.

EBC-1 cells [2] = test: Complement dependent cytotoxic assay; assay type: cell-based; details: 30% human complement
Procedure: Complement Dependent Cytotoxic Assay. EBC-1 cells were incubated with serially diluted test articles: Q397-noV205C or non-binding antibody. For the technical control, Raji cells, which expresses CD20 on the cell surface, were incubated with serially diluted test articles: anti-CD20 (research grade recombinant anti-CD20 rituximab, catalog number A2009) or non-binding antibody (human IgG1 isotype control antibody, catalog number BE0297). Briefly, EBC-1 and Raji cells were added to a 96-well U-bottom plate at a density of 2.5×10^4 cells/well. Serially diluted test articles were added to the plate. The starting concentration of all test articles was 100 nM. A 3-fold dilution was performed for 9 concentration points and added to the test plate in duplicates. The plate was then incubated for 30 minutes at 37° C. At the end of the culture period, either heat inactivated or pooled human complement sera at a final concentration of 30% diluted in culture media (RPMI) was added to the plate. The plate was then incubated at 37 °C for two hours and cell lysis was assessed using CellTiter-Glo.

NCI-H441 cells = test: Cell proliferation assay (CellTiter-Glo); assay type: cell-based, human; details: 10 nM, 4 days, serum starved
[3] = test system: phosphorylation of ERK1/2 and Akt1 in NCI-H441 cells; test: Cell signaling assay (ELISA); assay type: cell-based, human; details: 10 μg/mL, 30 minutes
Procedure: Cell Signaling Assay. Briefly: NCI-H441 cells were cultured in standard culture media (RPMI-1640 Medium+10% fetal bovine serum) using conditions recommended by the vendor. For the cell signaling assay, NCI-H441 cells were seeded in 6-well plates at 300,000 cells per well in culture media. The next day, the cells were washed with serum-free medium twice and then replenished with 3 mL RPMI+0.2% fetal bovine serum.
The following day, cells were treated with 50 ng/ml HGF or 10 μg/mL of test articles and incubated for 30 minutes at 37° C. Following the 30-minute stimulation, the treatment medium was aspirated, the cells were washed 2 times in an excess volume of ice-cold phosphate buffered saline and collected by cell scraping on ice in 250 μL ice-cold lysis buffer per well and transferred to pre-chilled tubes. […] Lysates were thawed on ice for 1 hour with occasional vortexing, and protein concentrations were measured using the BCA protein assay according to the manufacturer's instructions. Lysates were diluted in lysis buffer to final concentration 0.5 mg/mL, and 100 μL of each sample was assessed using commercially available ELISA kits to detect total ERK1/2 and Akt1 and their phosphorylated forms. ELISAs were performed and analyzed according to the manufacturer's instructions. […]

EBC-1 cells [4] = test: ADCC effector function with PBMCs; assay type: cell-based, human; details: PBMCs from all donors, vs IgG1 isotype control
EBC-1 cells [5] = test: ADCP effector function; assay type: cell-based, human; details: vs IgG1 isotype control
recombinant human cMET = recombinant human cMET (human, UniProt P08581 25-932, limits assumed); test: BLI (Octet), antibody captured on AHC sensor, recombinant human cMET as analyte, pH 7.4; BLI, recombinant human cMET as analyte, pH 7.4
[6] = biological target: recombinant cynomolgus monkey cMET (cynomolgus monkey, UniProt A0A2K5UM36 25-932); test: BLI (Octet), antibody captured on AHC sensor, recombinant cynomolgus monkey cMET as analyte, pH 7.4
[7] = biological target: human cMET on cMET+ human cancer cells (human, UniProt P08581 25-1390); test: cell-based or functional assay
rat cMET = rat cMET (rat, UniProt P97523 25-935, limits assumed); test: ELISA or BLI (the filing does not say which)
mouse cMET = mouse cMET (mouse, UniProt P16056 25-931, limits assumed); test: ELISA or BLI (the filing does not say which)
Chain of mouse cMET (P16056 25-931 limits assumed): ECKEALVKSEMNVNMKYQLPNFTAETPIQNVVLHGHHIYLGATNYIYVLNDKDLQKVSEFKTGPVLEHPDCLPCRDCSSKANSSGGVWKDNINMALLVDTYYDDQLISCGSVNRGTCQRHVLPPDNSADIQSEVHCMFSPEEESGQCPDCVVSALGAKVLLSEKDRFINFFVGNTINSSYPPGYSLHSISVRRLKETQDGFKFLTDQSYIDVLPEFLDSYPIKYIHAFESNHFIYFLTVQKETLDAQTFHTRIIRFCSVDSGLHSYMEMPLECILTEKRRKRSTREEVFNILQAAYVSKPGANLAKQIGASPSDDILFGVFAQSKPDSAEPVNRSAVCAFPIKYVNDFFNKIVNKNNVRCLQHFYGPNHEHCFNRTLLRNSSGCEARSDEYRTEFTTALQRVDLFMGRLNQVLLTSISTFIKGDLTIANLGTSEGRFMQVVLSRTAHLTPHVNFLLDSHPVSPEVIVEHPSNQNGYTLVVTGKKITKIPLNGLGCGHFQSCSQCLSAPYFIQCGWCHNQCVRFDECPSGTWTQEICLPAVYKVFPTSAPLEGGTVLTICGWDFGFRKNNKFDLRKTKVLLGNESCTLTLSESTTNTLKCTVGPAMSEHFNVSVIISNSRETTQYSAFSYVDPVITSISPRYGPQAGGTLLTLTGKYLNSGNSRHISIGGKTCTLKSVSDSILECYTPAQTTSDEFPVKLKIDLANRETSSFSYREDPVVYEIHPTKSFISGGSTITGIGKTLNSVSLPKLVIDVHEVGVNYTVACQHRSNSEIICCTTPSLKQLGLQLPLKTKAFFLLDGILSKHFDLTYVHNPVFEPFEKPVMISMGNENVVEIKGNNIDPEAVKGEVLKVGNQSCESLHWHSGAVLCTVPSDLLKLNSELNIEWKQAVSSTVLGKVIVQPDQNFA

Chain of rat cMET (P97523 25-935 limits assumed): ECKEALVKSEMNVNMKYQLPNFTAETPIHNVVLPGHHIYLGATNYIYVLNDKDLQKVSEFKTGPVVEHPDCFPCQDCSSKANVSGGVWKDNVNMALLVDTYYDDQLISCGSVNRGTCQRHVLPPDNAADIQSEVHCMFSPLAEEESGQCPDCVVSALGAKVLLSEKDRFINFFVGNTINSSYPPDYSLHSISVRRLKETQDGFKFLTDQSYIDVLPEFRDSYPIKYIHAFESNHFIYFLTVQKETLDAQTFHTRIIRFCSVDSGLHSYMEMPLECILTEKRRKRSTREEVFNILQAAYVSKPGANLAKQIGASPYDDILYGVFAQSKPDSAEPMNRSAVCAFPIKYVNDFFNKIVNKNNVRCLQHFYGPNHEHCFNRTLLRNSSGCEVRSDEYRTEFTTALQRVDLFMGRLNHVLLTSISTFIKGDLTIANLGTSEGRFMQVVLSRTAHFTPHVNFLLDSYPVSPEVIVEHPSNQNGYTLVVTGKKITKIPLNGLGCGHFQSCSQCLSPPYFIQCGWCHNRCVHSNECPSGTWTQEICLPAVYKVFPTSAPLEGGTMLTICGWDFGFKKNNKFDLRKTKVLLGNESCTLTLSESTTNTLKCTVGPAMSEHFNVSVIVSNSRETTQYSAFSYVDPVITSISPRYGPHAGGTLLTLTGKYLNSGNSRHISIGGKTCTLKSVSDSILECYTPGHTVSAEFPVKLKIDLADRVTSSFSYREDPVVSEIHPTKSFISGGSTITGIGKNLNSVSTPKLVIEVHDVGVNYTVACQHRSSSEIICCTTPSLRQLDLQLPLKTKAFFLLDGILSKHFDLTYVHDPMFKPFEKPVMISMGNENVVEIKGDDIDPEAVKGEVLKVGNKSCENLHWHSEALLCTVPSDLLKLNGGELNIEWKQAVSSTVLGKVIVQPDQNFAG
Chain of recombinant human cMET (P08581 25-932 limits assumed): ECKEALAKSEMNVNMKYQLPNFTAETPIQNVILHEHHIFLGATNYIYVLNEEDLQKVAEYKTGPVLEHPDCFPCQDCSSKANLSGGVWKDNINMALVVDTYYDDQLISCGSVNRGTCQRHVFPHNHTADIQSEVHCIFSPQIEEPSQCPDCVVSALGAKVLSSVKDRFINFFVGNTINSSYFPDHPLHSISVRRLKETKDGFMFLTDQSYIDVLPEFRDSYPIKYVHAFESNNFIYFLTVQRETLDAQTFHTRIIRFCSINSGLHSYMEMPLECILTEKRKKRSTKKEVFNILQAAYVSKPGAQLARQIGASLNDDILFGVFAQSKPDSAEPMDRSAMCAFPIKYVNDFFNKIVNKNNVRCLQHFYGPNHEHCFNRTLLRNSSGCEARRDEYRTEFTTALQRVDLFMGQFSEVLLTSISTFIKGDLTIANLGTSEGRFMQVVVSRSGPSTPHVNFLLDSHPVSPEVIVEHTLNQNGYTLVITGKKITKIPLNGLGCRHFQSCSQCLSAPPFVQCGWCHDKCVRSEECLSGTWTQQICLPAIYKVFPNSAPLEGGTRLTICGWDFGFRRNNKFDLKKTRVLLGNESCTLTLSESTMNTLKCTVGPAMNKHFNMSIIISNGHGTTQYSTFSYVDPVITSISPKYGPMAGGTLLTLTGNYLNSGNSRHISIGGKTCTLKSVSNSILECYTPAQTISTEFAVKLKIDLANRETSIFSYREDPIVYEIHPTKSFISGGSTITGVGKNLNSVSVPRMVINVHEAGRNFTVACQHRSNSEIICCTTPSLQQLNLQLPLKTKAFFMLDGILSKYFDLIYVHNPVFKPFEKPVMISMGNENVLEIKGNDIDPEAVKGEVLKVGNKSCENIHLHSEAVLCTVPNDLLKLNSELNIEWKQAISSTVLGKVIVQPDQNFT
Chain of human cMET on cMET+ human cancer cells (P08581 25-1390): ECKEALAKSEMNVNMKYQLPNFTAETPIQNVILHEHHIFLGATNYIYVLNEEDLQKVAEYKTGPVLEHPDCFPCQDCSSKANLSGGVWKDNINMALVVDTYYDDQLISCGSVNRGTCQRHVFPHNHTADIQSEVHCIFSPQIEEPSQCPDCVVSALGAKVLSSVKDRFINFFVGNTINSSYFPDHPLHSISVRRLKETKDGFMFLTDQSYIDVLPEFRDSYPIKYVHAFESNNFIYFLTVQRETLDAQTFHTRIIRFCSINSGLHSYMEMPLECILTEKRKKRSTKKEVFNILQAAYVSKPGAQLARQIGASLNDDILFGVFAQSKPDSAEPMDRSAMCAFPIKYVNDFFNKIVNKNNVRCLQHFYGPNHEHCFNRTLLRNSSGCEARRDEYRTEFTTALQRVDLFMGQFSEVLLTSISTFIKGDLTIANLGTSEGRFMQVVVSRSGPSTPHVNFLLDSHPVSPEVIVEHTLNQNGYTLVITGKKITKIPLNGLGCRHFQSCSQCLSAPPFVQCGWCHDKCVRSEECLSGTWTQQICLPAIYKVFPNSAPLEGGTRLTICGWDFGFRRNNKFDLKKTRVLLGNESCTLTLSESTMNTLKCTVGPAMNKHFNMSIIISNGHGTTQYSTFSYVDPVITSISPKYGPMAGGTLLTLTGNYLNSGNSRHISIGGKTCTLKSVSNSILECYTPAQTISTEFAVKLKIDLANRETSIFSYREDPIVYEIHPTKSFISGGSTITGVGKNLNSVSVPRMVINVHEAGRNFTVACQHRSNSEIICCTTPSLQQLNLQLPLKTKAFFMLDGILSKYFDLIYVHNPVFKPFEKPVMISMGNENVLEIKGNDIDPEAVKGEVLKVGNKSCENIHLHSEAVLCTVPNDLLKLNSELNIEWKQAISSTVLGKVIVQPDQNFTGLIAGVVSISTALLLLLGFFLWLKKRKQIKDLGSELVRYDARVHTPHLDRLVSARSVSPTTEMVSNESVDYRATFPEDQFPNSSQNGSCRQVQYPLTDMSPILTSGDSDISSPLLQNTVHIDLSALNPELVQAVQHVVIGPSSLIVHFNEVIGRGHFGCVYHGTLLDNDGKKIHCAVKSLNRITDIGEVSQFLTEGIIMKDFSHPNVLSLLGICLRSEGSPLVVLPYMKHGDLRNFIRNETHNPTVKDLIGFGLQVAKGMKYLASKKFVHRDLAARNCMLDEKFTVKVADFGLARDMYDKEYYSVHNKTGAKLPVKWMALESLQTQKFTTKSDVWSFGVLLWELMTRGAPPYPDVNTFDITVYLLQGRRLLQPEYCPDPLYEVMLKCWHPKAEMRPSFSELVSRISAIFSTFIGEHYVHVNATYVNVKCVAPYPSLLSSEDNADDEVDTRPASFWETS
Chain of recombinant cynomolgus monkey cMET (A0A2K5UM36 entry or part of it limits assumed): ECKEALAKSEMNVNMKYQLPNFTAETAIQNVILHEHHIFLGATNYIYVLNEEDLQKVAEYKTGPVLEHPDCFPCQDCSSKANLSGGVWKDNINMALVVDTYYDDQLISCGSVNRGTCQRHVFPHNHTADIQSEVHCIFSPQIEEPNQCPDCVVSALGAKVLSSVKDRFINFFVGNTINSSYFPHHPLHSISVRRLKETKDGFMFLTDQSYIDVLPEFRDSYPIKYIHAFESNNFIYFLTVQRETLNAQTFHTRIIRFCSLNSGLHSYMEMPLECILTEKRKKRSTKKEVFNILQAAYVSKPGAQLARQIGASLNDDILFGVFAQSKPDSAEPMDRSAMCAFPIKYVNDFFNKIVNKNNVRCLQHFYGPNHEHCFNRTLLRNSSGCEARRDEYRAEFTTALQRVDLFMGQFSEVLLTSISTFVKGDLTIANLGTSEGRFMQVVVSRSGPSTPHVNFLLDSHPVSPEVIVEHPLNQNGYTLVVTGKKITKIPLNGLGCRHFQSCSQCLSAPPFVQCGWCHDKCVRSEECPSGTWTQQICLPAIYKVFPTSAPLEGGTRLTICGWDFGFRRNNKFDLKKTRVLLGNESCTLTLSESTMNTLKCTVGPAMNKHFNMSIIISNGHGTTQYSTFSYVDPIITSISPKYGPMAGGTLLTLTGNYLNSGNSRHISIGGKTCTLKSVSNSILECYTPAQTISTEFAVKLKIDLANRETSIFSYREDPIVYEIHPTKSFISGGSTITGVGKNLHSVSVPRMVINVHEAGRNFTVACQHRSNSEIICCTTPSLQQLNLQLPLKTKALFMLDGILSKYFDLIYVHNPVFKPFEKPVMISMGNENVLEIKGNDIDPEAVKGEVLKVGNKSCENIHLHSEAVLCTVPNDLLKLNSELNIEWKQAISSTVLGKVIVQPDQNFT

Molecule: CC[C@H](C)[C@@H]([C@@H](CC(=O)N1CCC[C@H]1[C@H](OC)[C@@H](C)C(=O)N[C@H](C)[C@@H](O)c1ccccc1)OC)N(C)C(=O)[C@@H](NC(=O)[C@@H](NC)C(C)C)C(C)C [MMAE, monomethyl auristatin E] (H-[NMeV]V[Dil][Dolaproine]-X1)
percentage of cells in G2-M phase (EBC-1 cells [1]): 68.6%

Molecule: Q397-noV205C: Anti-cMET antibody of MYTX-011 without the V205C substitution; SEQ ID NO: 75 and SEQ ID NO: 81
CDC activity (EBC-1 cell lysis) (EBC-1 cells [2]): minimal to no; also recorded: did not induce EBC-1 cell lysis
proliferation of cMET+ NCI-H441 cells (NCI-H441 cells): did not increase
phosphorylation of ERK1/2 or Akt1 [3]: minimal phosphorylation
ADCC activity (EBC-1 cells [4]): minimal to no; also recorded: Minimal ADCC activity
ADCP activity (EBC-1 cells [5]): minimal to no; also recorded: no ADCP activity

Second part, the molecule after the results:

Kd (recombinant human cMET): 4 nM
Kd [6]: 9.44 nM
uptake of pHrodo-conjugated mAb in NCI-H1975 cells by live cell imaging, at 24 hours, over the parent mAb [7]: 3 fold
binding result (rat cMET): no binding
binding result (mouse cMET): no binding
B1: MYTX-011 mAb (antibody, V domains shown)
VH: QVQLVQSGAEVKKPGASVKVSCKASGYTFTDYYMHWVRQAPGQGLEWMGRVNPNRRGTTYNQKFEGRVTMTTDTSTSTAYMELRSLRSDDTAVYYCARANWLDYWGQGTTVTVSS
VL: DIQMTQSPSSLSASVGDRVTITCSVSSSVSSIHLHWYQQKPGKAPKLLIYHTSNLASGVPSRFSGSGSGTDFTLTISSLQPEDFATYYCQVYSGYPLTFGGGTKVEIKR
notes: also called Q397

binding result (rat cMET): no binding
binding result (mouse cMET): no binding
B2: MYTX-011 (antibody, IgG1, V domains shown)
VH: QVQLVQSGAEVKKPGASVKVSCKASGYTFTDYYMHWVRQAPGQGLEWMGRVNPNRRGTTYNQKFEGRVTMTTDTSTSTAYMELRSLRSDDTAVYYCARANWLDYWGQGTTVTVSS
VL: DIQMTQSPSSLSASVGDRVTITCSVSSSVSSIHLHWYQQKPGKAPKLLIYHTSNLASGVPSRFSGSGSGTDFTLTISSLQPEDFATYYCQVYSGYPLTFGGGTKVEIKR
modifications: vcMMAE (mc-vc-PAB-MMAE) linked to the engineered cysteine at position 98 of the light chain constant domain ("V205C"); DAR 2
notes: Antibody drug conjugate: humanized triple hinge IgG1 kappa antibody Q397 conjugated site-specifically to vcMMAE, drug to antibody ratio 2; also called anti-cMET pH-ADC; pH-ADC
